From IntAct's records for PubMed 25394380 come the findings set out here.

For the experiment, the target named is aph1a_human APH1A (UniProt Q96BI3).
aph1a_human APH1A, sequence (Q96BI3 whole entry): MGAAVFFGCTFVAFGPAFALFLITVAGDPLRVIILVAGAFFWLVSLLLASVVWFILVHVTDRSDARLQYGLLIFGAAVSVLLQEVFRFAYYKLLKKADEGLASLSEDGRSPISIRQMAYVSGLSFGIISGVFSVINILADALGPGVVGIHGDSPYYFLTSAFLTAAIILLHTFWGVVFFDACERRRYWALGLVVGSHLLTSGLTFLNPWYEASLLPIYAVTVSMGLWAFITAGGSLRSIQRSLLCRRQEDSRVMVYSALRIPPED

On to “Presenilin-1 (Homo sapiens) (from UniProt P49768) G206D”, for which the “effect of a mutation on the interaction” value is recorded as “with no effect”.
